# Patent publication US20230235074A1 (University of Texas, published 2023)
# T1: Recombinant human BST2 protein (Catalog number 13370-H07H, Sino Biological) (human, UniProt Q10589 49-161)
# T1 construct: Bought soluble protein; also called full length recombinant BST2 protein; full-length BST2 protein
# T1 sequence (looked up): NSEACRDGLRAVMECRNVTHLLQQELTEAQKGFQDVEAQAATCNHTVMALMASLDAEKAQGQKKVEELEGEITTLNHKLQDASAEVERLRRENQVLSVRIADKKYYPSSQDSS
# T2: Spartan protein (SprT-like domain-containing protein) (human, UniProt Q9H040 1-489, limits assumed)
# T2 construct: Irrelevant protein control in the preincubation assay; also called Spartan irrelevant protein; irrelevant protein
# T2 sequence (looked up): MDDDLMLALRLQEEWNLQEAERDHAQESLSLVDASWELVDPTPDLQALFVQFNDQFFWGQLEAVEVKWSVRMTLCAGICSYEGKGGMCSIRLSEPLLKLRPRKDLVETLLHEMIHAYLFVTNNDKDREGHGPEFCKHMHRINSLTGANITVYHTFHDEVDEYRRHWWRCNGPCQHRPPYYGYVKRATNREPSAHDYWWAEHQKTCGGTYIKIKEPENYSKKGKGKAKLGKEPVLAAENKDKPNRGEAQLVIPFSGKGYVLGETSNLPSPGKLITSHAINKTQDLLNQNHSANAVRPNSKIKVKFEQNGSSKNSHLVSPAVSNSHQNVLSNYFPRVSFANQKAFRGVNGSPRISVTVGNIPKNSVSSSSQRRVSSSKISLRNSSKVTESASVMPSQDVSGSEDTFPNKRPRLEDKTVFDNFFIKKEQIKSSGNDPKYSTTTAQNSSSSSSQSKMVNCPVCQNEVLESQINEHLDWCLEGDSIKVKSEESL
# B1: anti-BST2-long monoclonal antibody clone LA5 (antibody, mouse IgG1, V domains shown)
# VH: EVQLQQSGAELVRSGASVNLSCTASGFNIKDYYIHWVKQRPERGLEWIGWIDPENGDTEYAPEFQGKASMTADTSSNTAYLQLSSLTSEDTAVYYCKRGDWGQGTLVTVSA
# VL: DVLMTQTPLSLPVSLGDQASISCRSSQSIVHSNGNTYLEWFLQKPGQSPKLLIYKVSNRFSGVPDRFSGSGSGTDFTLKISRVEAEDLGVYYCFQGSHAPFTFGSGTELEIK
# notes: Mouse hybridoma antibody; Used as hybridoma supernatant in the screening assays and as Protein A purified mAb afterwards; also called LA5 mAb; MAb LA5
# What was measured:
# [1] = target: T1, Recombinant human BST2 protein (Catalog …); experiment: BLI (Octet RED384), mAb 5 ug/ml captured on anti-mouse IgG Fc (AMC) biosensors, BST2 protein 15.625-1000 nM, 1:1 model, global fit
# Protocol: Binding kinetics of the anti-BST2-long mAb clone LA5 was assessed, using Octet RED384 platform system. Briefly, antibodies were captured, as described under methods, by specific biosensors that bind the Fc region of the antibody. Based on prior experiments and certain standard operations procedures, 5 ug/ml was selected as the fixed concentration for the mAb. Various concentrations of the full length recombinant BST2 protein were used to assess the antibody affinity. The interaction was analyzed with a 1:1 binding model, involving both the association and the dissociation steps.
# [2] = target: BST2 as expressed endogenously on the surface of human cell lines (B-LCL, MM1, U266, MCF-10A, MCF7, MDA-MB-231, T47D) (human) (UniProt Q10589); experiment: flow cytometry on T47D cells, mAb 1 ug/ml
# [3] = target: BST2 as expressed endogenously on the surface of human cell lines (B-LCL, MM1, U266, MCF-10A, MCF7, MDA-MB-231, T47D) (human) (UniProt Q10589); experiment: flow cytometry on MCF-10A cells, mAb 1 ug/ml
# [4] = target: T2, Spartan protein (SprT-like …); experiment: flow cytometry of MM1 cells after preincubation of the mAb with Spartan protein
# Protocol: A specificity assay was performed and analyzed through flow cytometry staining of MM1, a multiple myeloma cell line. In this assay, changes in the binding of the LA5 mAb to the BST2 receptor expressed on MM1 cell lines were assessed after:
# As part of the characterization of the selected antibody candidate, the inventors analyzed the specificity of the new antibody by flow cytometry staining of a cell line, constitutively expressing BST2, competing the antibody binding to the cells with a recombinant BST2 protein and an irrelevant target. Staining of MM1, a multiple myeloma cell line, was assessed at different conditions to test the binding specificity of the generated monoclonal antibodies. Anti-BST2-long (clone LA5) was pre-incubated with BST2 protein for 10 minutes, before being transferred to U-bottom wells plate containing MM1 cells. […] Alternatively, Spartan protein, or SprT-like domain-containing protein, a human DNA-binding metalloprotease with 489 amino acid length and involved in the response to DNA replication errors (34, 35) was used as an irrelevant protein.
# [5] = target: BST2 as expressed endogenously on the surface of human cell lines (B-LCL, MM1, U266, MCF-10A, MCF7, MDA-MB-231, T47D) (human) (UniProt Q10589); experiment: flow cytometry on MM1 cells, mAb preincubated 10 min with Spartan protein (5 ug/ml)
# [6] = target: BST2 as expressed endogenously on the surface of human cell lines (B-LCL, MM1, U266, MCF-10A, MCF7, MDA-MB-231, T47D) (human) (UniProt Q10589); experiment: flow cytometry on MCF7 cells, mAb 1 ug/ml
# [7] = target: BST2 as expressed endogenously on the surface of human cell lines (B-LCL, MM1, U266, MCF-10A, MCF7, MDA-MB-231, T47D) (human) (UniProt Q10589); experiment: flow cytometry on MM1 cells, mAb not preincubated
# [8] = target: BST2 as expressed endogenously on the surface of human cell lines (B-LCL, MM1, U266, MCF-10A, MCF7, MDA-MB-231, T47D) (human) (UniProt Q10589); experiment: flow cytometry on MM1 cells, mAb preincubated 10 min with recombinant BST2 protein (5 ug/ml) as competitor
# [9] = target: BST2 as expressed endogenously on the surface of human cell lines (B-LCL, MM1, U266, MCF-10A, MCF7, MDA-MB-231, T47D) (human) (UniProt Q10589); experiment: flow cytometry on U266 cells, mAb 1 ug/ml
# [10] = target: T3, BST2 long isoform (BST2-D, full length BST2, 180 amino acids) expressed on HEK293 transfectants (human, UniProt Q10589 1-161); experiment: flow cytometry, hybridoma supernatant on HEK293-long cells
# T3 construct: also called HEK293-long; HEK293 WT-BST2
# Protocol: For flow cytometry assays, cells were detached using 0.05% trypsin-EDTA, counted, washed and resuspend with FACS Buffer (PBS, 2% FBS, 2 mM EDTA). 2×10⁵ cells in 100 ul/well were placed in U-bottom 96-well plate and centrifuged (1000 RPM/3 min/4° C.). The buffer was discarded and 100 ul of the previously collected supernatants with selected monoclonal antibodies were added to the wells and incubated on ice for 30 minutes. After incubation, the plate was washed three times with FACS buffer and 50 ul of diluted (1/250) secondary antibody (Donkey anti-mouse Allophycocyanin (APC) conjugated) were added to the wells and incubated on ice for 20 minutes protected from light. The final wash was repeated 4 times, and the samples were transferred and analyzed at the South Campus Flow Cytometry & Cell Sorting Core Laboratory at MD Anderson Cancer Center. FACS data were analyzed with FlowJo™ Software—for Windows (Version 10.6.1. Ashland, Oreg.: Becton, Dickinson and Company; 2020).
# [11] = target: BST2 as expressed endogenously on the surface of human cell lines (B-LCL, MM1, U266, MCF-10A, MCF7, MDA-MB-231, T47D) (human) (UniProt Q10589); experiment: flow cytometry on MDA-MB-231 cells, mAb 1 ug/ml
# [12] = target: BST2 as expressed endogenously on the surface of human cell lines (B-LCL, MM1, U266, MCF-10A, MCF7, MDA-MB-231, T47D) (human) (UniProt Q10589); experiment: flow cytometry on B-LCL cells, mAb 1 ug/ml
# [13] = target: BST2 as expressed endogenously on the surface of human cell lines (B-LCL, MM1, U266, MCF-10A, MCF7, MDA-MB-231, T47D) (human) (UniProt Q10589); experiment: flow cytometry on MM1 cells, mAb 1 ug/ml
binder,measurement,setting,value
B1,Kd,[1],4.61 nM
same,koff,[1],0.000921 s⁻¹
same,kon,[1],200000 M⁻¹ s⁻¹
same,percentage of cell staining,[2],2.6%
same,percentage of cell staining,[3],2.4%
same,binding result,[4],no binding (tested: 5 ug/ml)
same,staining percentage of the MM1 cells,[5],83.9%
same,percentage of cell staining,[6],0.43%
same,staining percentage of the MM1 cells,[7],85.2%
same,staining percentage of the MM1 cells,[8],5.01%
same,percentage of cell staining,[9],96.1%
same,percentage of cells stained,[10],58.3%
same,percentage of cell staining,[11],1%
same,percentage of cell staining,[12],99.3%
same,percentage of cell staining,[13],98.6%
